According to patent publication US20040266664A1 (YALE UNIVERSITY, published 2004):
Primed or numbered codes have the meaning given here. [ ]: non-standard residue; d: D form. α′‑methyl‑α′,β′‑epoxide = C-terminal α′-methyl-α′,β′-epoxyketone; hPhe = N[C@@H](CCc1ccccc1)C(=O)O; Nle = CCCC[C@H](N)C(=O)O

What follows are binders tested against proteasome in bovine aortic endothelial (BAE) cells (bovine) (assay: cell-based or functional assay).

In order of rising “IC50, inhibition of BAE cell proliferation ([methyl-3H]-thymidine incorporation)” value:
1. Ac-LLFL-{α′‑methyl‑α′,β′‑epoxide} [Ac-LLFL-epoxide]  7 nM
2. Ac-LFLL-{α′‑methyl‑α′,β′‑epoxide} [Ac-LFLL-epoxide]  16 nM
3. Ac-[hPhe]LFL-{α′‑methyl‑α′,β′‑epoxide} [compound 16]  20 nM
4. Ac-LLAL-{α′‑methyl‑α′,β′‑epoxide} [Ac-LLAL-epoxide]  34 nM
5. Ac-ALLL-{α′‑methyl‑α′,β′‑epoxide} [Ac-ALLL-epoxide]  83 nM
6. Ac-LALL-{α′‑methyl‑α′,β′‑epoxide} [Ac-LALL-epoxide]  700 nM

Molecular target: proteasome in bovine aortic endothelial (BAE) cells (bovine)
Assay: cell-based or functional assay
Remark: another data set of the same source

In order of falling “IC50, inhibition of BAE cell proliferation” value:
1. Ac-GPFL-{α′‑methyl‑α′,β′‑epoxide} [Ac-GPFL-Ex]  58000 nM
2. Ac-[Nle]PFL-{α′‑methyl‑α′,β′‑epoxide} [Ac-NorLPFL-Ex]  53000 nM
3. isooctanoyl-Pro-Phe-Leu-{α′,β′‑epoxide with α′‑methyl (epoxyketone)} (also: C-terminal Leu as α′,β′-epoxyketone (epoxide) with α′-methyl substituent) [Isooctanioc-PFL-Ex]  600 nM
4. {N‑dimethylaminobenzoyl}-Pro-Phe-Leu-{α′,β′‑epoxide with α′‑methyl (epoxyketone)} (also: C-terminal Leu as α′,β′-epoxyketone (epoxide) with α′-methyl substituent) [N-dimethylaminobenzoyl-PFL-EX]  400 nM
5. pyrazinecarbonyl-Pro-Phe-Leu-{α′,β′‑epoxide with α′‑methyl (epoxyketone)} (also: C-terminal Leu as α′,β′-epoxyketone (epoxide) with α′-methyl substituent) [Pyrazinecarbonyl-PFL-Ex]  400 nM
